Reference: US20260242419A1, “A CYCLIC PEPTIDE FOR TRAPPING INTERLEUKIN-1 BETA” (Merck Sharp & Dohme LLC, priority 2023, published 2026)
Non-standard residues stand in square brackets, D forms with d. No end group written: not given here. Phe(4-(5-CO2H-2-pyrimidyl)) = N[C@@H](Cc1ccc(-c2ncc(C(=O)O)cn2)cc1)C(=O)O; Phe(4-(4-Ac-piperazinyl)) = CC(=O)N1CCN(c2ccc(C[C@H](N)C(=O)O)cc2)CC1; dPro(4R-(4-pyridylmethyl)) = O=C(O)[C@H]1C[C@@H](Cc2ccncc2)CN1; Trp(βS-Me,4-F) = C[C@@H](c1c[nH]c2cccc(F)c12)[C@H](N)C(=O)O; Bip(4'-COOH) = N[C@@H](Cc1ccc(-c2ccc(C(=O)O)cc2)cc1)C(=O)O; Ala(1-bicyclo(1.1.1)pentyl) = N[C@@H](CC12CC(C1)C2)C(=O)O; dPro(4R-Bzl(4-F)) = O=C(O)[C@H]1C[C@@H](Cc2ccc(F)cc2)CN1; Ala(pyrimidin-5-yl) = N[C@@H](Cc1cncnc1)C(=O)O; Phe(4-COOH) = N[C@@H](Cc1ccc(C(=O)O)cc1)C(=O)O; Pro(cis-4-F) = O=C(O)[C@@H]1C[C@H](F)CN1; Ala(4-THP) = N[C@@H](CC1CCOCC1)C(=O)O; cisHyp = O=C(O)[C@@H]1C[C@H](O)CN1; 4Pal = N[C@@H](Cc1ccncc1)C(=O)O; αMeD = C[C@](N)(CC(=O)O)C(=O)O; d(αMeS) = C[C@@](N)(CO)C(=O)O; Dab = NCC[C@H](N)C(=O)O; Aib = CC(C)(N)C(=O)O

Target: Recombinant human IL-1β (BioLegend 579404) (human, UniProt P01584 117-269)
Assay: cell-based or functional assay

| Binder | MRC5 IC50 [nM] |
| --- | --- |
| [Bip(4'-COOH)][Ala(1-bicyclo(1.1.1)pentyl)][Phe(4-COOH)]G[cisHyp][Trp(βS-Me,4-F)][Aib]SW[d(αMeS)][Ala(pyrimidin-5-yl)]Q[Dab]G[dPro(4R-(4-pyridylmethyl))] (lactam (positions not given here); also: macrolactam ring, closure sites not given here) [SEQ ID NO: 190] | 0.019 |
| [Phe(4-(5-CO2H-2-pyrimidyl))][Ala(1-bicyclo(1.1.1)pentyl)][Phe(4-COOH)]G[Pro(cis-4-F)][Trp(βS-Me,4-F)][Aib]SW[αMeD][Ala(pyrimidin-5-yl)]Q[Dab]G[dPro(4R-(4-pyridylmethyl))] (lactam (positions not given here); also: macrolactam ring, closure sites not given here) [SEQ ID NO: 188] | 0.02 |
| [Bip(4'-COOH)][Ala(1-bicyclo(1.1.1)pentyl)][Phe(4-COOH)]G[cisHyp][Trp(βS-Me,4-F)][Aib]SW[d(αMeS)][Ala(4-THP)]Q[Dab]G[dPro(4R-(4-pyridylmethyl))] (lactam (positions not given here); also: macrolactam ring, closure sites not given here) [SEQ ID NO: 192] | 0.021 |
| [Bip(4'-COOH)][4Pal][Phe(4-COOH)]G[cisHyp][Trp(βS-Me,4-F)][Aib]SW[d(αMeS)][Ala(pyrimidin-5-yl)]Q[Dab]G[dPro(4R-(4-pyridylmethyl))] (lactam (positions not given here); also: macrolactam ring, closure sites not given here) [SEQ ID NO: 195] | 0.013 |
| [Phe(4-(5-CO2H-2-pyrimidyl))][4Pal][Phe(4-COOH)]G[Pro(cis-4-F)][Trp(βS-Me,4-F)][Aib]SW[Aib][Ala(pyrimidin-5-yl)]Q[Dab]G[dPro(4R-(4-pyridylmethyl))] (lactam (positions not given here); also: macrolactam ring, closure sites not given here) [SEQ ID NO: 186] | 0.015 |
| [Phe(4-(5-CO2H-2-pyrimidyl))][4Pal][Phe(4-COOH)]G[cisHyp][Trp(βS-Me,4-F)][Aib]SW[Aib][Ala(pyrimidin-5-yl)]Q[Dab]G[dPro(4R-(4-pyridylmethyl))] (lactam (positions not given here); also: macrolactam ring, closure sites not given here) [SEQ ID NO: 197] | 0.036 |
| [Bip(4'-COOH)][4Pal][Phe(4-COOH)]G[cisHyp][Trp(βS-Me,4-F)][Aib]SW[Aib][Ala(pyrimidin-5-yl)]Q[Dab]G[dPro(4R-(4-pyridylmethyl))] (lactam (positions not given here); also: macrolactam ring, closure sites not given here) [SEQ ID NO: 194] | 0.014 |
| [Bip(4'-COOH)][Ala(1-bicyclo(1.1.1)pentyl)][Phe(4-COOH)]G[cisHyp][Trp(βS-Me,4-F)][Aib]SW[αMeD][Ala(4-THP)]Q[Dab]G[dPro(4R-(4-pyridylmethyl))] (lactam (positions not given here); also: macrolactam ring, closure sites not given here) [SEQ ID NO: 191] | 0.021 |
| [Phe(4-(4-Ac-piperazinyl))][4Pal][Phe(4-COOH)]G[cisHyp][Trp(βS-Me,4-F)][Aib]SW[Aib][Ala(pyrimidin-5-yl)]Q[Dab]G[dPro(4R-Bzl(4-F))] (lactam (positions not given here); also: macrolactam ring, closure sites not given here) [SEQ ID NO: 196] | 0.038 |
| cyclo([Bip(4'-COOH)][4Pal][Phe(4-COOH)]G[cisHyp][Trp(βS-Me,4-F)][Aib]SW[αMeD][Ala(4-THP)]QSG[dPro(4R-(4-pyridylmethyl))]) (ring closure inferred; not fully specified (bridges); printed as Bip4CO2H-4Pal-Phe4COOH-G-Proc4OH-SbMeW4F-Aib-S-W-aMeD-AlaTHP4-Q-S-G-dProc4CH24Pal, cyclic (macrolactam)) [SEQ ID NO: 199] | 0.032 |
| [Phe(4-(5-CO2H-2-pyrimidyl))][4Pal][Phe(4-COOH)]G[Pro(cis-4-F)][Trp(βS-Me,4-F)][Aib]SW[αMeD][Ala(pyrimidin-5-yl)]Q[Dab]G[dPro(4R-(4-pyridylmethyl))] (lactam (positions not given here); also: macrolactam ring, closure sites not given here) [SEQ ID NO: 187] | 0.015 |
| [Bip(4'-COOH)][Ala(1-bicyclo(1.1.1)pentyl)][Phe(4-COOH)]G[Pro(cis-4-F)][Trp(βS-Me,4-F)][Aib]SW[αMeD][Ala(4-THP)]Q[Dab]G[dPro(4R-(4-pyridylmethyl))] (lactam (positions not given here); also: macrolactam ring, closure sites not given here) [SEQ ID NO: 193] | 0.011 |
| cyclo([Bip(4'-COOH)][4Pal][Phe(4-COOH)]G[Pro(cis-4-F)][Trp(βS-Me,4-F)][Aib]SW[αMeD][Ala(4-THP)]Q[Dab]G[dPro(4R-(4-pyridylmethyl))]) (ring closure inferred; not fully specified (bridges); printed as Bip4CO2H-4Pal-Phe4COOH-G-Proc4F-SbMeW4F-Aib-S-W-aMeD-AlaTHP4-Q-Dab-G-dProc4CH24Pal, cyclic (macrolactam)) [SEQ ID NO: 200] | 0.014 |
| [Phe(4-(5-CO2H-2-pyrimidyl))][Ala(1-bicyclo(1.1.1)pentyl)][Phe(4-COOH)]G[Pro(cis-4-F)][SbMcW4F][Aib]SW[Aib][Ala(pyrimidin-5-yl)]Q[Dab]G[dPro(4R-(4-pyridylmethyl))] (lactam (positions not given here); also: macrolactam ring, closure sites not given here) [SEQ ID NO: 198] | 0.024 |
| [Bip(4'-COOH)][4Pal][Phe(4-COOH)]G[Pro(cis-4-F)][Trp(βS-Me,4-F)][Aib]SW[αMeD][Ala(4-THP)]QSG[dPro(4R-(4-pyridylmethyl))] (lactam (positions not given here); also: macrolactam ring, closure sites not given here) [SEQ ID NO: 189] | 0.016 |
